Assay results from patent US20200085917A1.

What was measured:
Assay in all cases: GST pull-down, LC-MS/MS
[1] = target: Cend1_IPI:IPI00122826.1 (mouse) (UniProt Q9JKC6)
[2] = target: Tuba4a_IPI:IPI00117350.1 (mouse) (UniProt P68368)
[3] = target: Atp1a3_IPI:IPI00122048.2 (mouse) (UniProt Q6PIC6)
[4] = target: T1, C1qbp_IPI:IPI00132799.4 (mouse) (UniProt O35658)
T1 sequence (looked up): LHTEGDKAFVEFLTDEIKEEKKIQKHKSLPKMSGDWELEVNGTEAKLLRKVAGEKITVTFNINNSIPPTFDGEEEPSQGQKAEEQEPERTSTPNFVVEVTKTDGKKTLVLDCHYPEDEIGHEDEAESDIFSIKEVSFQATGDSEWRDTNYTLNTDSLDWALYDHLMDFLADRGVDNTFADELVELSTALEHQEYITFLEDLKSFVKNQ

[5] = target: IPI:IPI00123176.1_IPI:IPI00123176.1 (mouse)
[6] = target: T2, Ccdc127_IPI:IPI00131843.3 (mouse) (UniProt Q3TC33)
T2 sequence (looked up): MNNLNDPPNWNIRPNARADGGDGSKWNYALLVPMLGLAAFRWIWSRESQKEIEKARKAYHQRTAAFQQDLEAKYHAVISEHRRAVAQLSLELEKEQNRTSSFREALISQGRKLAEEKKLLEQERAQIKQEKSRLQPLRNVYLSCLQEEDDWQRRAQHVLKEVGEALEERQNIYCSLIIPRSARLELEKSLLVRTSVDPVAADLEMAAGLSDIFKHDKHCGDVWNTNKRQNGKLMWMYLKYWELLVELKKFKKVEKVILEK

[7] = target: T3, Sfxn5_IPI:IPI00221602.1 (mouse) (UniProt Q925N0)
T3 sequence (looked up): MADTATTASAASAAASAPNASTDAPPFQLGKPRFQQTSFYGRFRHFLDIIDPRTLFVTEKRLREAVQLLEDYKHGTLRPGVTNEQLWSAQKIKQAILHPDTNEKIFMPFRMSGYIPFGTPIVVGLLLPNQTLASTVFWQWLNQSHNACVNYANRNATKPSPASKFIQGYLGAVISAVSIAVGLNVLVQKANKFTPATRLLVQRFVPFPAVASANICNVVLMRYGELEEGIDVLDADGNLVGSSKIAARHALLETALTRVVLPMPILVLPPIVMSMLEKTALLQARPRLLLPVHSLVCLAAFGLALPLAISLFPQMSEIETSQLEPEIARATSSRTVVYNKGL

[8] = target: T4, Atp5f1_IPI:IPI00341282.2 (mouse) (UniProt Q9CQQ7)
T4 sequence (looked up): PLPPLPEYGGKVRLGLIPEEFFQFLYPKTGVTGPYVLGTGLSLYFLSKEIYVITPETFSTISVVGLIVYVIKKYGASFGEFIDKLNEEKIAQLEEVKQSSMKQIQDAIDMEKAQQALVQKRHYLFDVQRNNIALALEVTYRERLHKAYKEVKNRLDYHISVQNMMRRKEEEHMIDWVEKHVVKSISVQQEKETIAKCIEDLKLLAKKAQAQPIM

[9] = target: Ndufb5_IPI:IPI00132531.1 (mouse) (UniProt Q9CQH3)
Chain of Ndufb5_IPI:IPI00132531.1 (mouse) (Q9CQH3 47-189 limits assumed): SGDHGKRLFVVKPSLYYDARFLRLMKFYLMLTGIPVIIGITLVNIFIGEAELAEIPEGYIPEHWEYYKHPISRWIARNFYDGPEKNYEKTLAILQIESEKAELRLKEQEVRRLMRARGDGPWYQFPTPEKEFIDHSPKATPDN

[10] = target: Hspa9_IPI:IPI00880839.1 (mouse) (UniProt P38647)
Chain of Hspa9_IPI:IPI00880839.1 (mouse) (P38647 47-679 limits assumed): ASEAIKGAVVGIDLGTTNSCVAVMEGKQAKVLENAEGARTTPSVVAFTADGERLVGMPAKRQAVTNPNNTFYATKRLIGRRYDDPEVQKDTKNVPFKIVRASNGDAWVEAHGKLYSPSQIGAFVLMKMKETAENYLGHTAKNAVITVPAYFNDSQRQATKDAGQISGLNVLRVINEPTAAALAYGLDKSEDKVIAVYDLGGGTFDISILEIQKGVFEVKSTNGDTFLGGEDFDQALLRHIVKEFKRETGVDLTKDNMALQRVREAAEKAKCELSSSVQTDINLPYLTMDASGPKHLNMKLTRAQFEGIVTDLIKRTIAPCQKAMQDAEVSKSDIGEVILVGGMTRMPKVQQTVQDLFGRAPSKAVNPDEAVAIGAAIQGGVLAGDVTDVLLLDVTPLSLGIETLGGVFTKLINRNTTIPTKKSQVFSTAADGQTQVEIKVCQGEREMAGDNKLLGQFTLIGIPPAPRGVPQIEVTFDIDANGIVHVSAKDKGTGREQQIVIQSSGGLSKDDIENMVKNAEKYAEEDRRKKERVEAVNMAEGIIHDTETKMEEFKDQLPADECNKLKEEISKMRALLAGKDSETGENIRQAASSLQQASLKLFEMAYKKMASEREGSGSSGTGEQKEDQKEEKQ

[11] = target: T5, Pfn2_IPI:IPI00227805.6 (mouse) (UniProt Q9JJV2)
T5 sequence (looked up): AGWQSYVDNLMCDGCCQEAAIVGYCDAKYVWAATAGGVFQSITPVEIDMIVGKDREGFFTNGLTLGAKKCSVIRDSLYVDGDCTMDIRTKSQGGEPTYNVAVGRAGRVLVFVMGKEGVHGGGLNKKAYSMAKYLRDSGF

[12] = target: Timm17b_IPI:IPI00129504.1 (mouse) (UniProt Q9Z0V7)
Chain of Timm17b_IPI:IPI00129504.1 (mouse) (Q9Z0V7 whole entry): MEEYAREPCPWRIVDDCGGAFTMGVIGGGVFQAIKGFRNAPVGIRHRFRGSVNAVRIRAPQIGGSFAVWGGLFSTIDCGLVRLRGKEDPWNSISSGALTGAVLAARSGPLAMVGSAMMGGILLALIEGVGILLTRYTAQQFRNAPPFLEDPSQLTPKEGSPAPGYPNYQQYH

[13] = target: T6, Acsl6_IPI:IPI00123390.8 (mouse) (UniProt Q91WC3)
T6 sequence (looked up): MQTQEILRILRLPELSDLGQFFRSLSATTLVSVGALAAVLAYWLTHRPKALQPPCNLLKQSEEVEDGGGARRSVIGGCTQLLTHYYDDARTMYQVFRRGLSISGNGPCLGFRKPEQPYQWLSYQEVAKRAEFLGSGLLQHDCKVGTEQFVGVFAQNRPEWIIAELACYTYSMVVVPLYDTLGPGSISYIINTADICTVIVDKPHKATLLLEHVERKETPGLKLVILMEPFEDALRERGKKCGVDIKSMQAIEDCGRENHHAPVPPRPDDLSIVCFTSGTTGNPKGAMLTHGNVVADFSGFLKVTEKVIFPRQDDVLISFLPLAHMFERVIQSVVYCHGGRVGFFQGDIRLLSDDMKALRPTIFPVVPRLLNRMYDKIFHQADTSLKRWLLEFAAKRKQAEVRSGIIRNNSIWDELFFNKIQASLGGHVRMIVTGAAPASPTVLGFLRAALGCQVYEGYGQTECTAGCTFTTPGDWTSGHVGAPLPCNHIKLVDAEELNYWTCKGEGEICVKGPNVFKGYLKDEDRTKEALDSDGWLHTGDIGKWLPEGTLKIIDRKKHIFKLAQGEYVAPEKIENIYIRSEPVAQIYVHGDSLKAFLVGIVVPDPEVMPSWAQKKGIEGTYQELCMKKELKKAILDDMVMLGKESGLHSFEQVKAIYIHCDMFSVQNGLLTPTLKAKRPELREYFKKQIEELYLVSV

Chain of GST-Httex1-23Q (P08515 1-218, tags or fused parts left off): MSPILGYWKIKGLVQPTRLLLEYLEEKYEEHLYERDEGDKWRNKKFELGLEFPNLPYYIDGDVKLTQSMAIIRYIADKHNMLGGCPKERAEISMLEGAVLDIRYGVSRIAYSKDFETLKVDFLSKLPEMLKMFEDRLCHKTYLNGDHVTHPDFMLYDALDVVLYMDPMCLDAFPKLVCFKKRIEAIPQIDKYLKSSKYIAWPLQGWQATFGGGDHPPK
Chain of Tuba4a_IPI:IPI00117350.1 (mouse) (P68368 whole entry): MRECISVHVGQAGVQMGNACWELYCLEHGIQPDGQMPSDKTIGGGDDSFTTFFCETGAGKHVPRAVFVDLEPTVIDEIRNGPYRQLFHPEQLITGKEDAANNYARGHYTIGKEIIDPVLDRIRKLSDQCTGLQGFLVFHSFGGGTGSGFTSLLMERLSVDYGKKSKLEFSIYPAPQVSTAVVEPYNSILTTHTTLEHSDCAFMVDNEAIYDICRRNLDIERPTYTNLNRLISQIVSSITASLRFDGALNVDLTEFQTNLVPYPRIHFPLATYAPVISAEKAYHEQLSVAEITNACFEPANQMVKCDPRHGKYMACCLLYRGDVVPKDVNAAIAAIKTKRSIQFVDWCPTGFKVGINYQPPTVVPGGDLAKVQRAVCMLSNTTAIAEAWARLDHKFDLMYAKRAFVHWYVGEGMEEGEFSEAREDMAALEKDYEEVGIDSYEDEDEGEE
Chain of Cend1_IPI:IPI00122826.1 (mouse) (Q9JKC6 whole entry): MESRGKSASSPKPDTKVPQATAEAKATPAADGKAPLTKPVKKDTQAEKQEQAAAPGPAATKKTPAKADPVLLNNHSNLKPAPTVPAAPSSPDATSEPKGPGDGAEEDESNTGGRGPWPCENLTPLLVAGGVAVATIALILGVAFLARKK

Row | Substance | No. of total peptides [1] [peptides] | No. of unique peptides [1] [peptides] | No. of total peptides [2] [peptides] | No. of unique peptides [2] [peptides] | No. of total peptides [3] [peptides] | No. of unique peptides [3] [peptides] | No. of total peptides [4] [peptides] | No. of unique peptides [4] [peptides] | No. of total peptides [5] [peptides] | No. of unique peptides [5] [peptides] | No. of total peptides [6] [peptides] | No. of unique peptides [6] [peptides] | No. of total peptides [7] [peptides] | No. of unique peptides [7] [peptides] | No. of total peptides [8] [peptides] | No. of unique peptides [8] [peptides] | No. of total peptides [9] [peptides] | No. of unique peptides [9] [peptides] | No. of total peptides [10] [peptides] | No. of unique peptides [10] [peptides] | also measured
1 | GST-Httex1-23Q (from UniProt P08515 1-218; P42858 1-88) | 3 | 3 | 3 | 3 | 2 | 2 | 6 | 3 | 1 | 1 | 2 | 2 | 3 | 3 | 3 | 3 | 1 | 1 | 1 | 1 | No. of total peptides [11]: 1 peptides; No. of unique peptides [11]: 1 peptides; No. of total peptides [12]: 3 peptides; No. of unique peptides [12]: 3 peptides; No. of total peptides [13]: 2 peptides; No. of unique peptides [13]: 2 peptides
2 | GST-Httex1-97Q (from UniProt P08515 1-218; P42858 1-88) | 5 | 4 | 2 | 2 | 3 | 3 | 3 | 2 | 2 | 2 | 5 | 5 | 6 | 5 | 4 | 4 | 1 | 1 | 1 | 1 | No. of total peptides [11]: 2 peptides; No. of unique peptides [11]: 2 peptides; No. of total peptides [12]: 1 peptides; No. of unique peptides [12]: 1 peptides; No. of total peptides [13]: 2 peptides; No. of unique peptides [13]: 2 peptides
